US20170210823A1 (YEDA RESEARCH AND DEVELOPMENT, published 2017)

Columns and labels:
[1] = target: T1, catalytic domain of human LOXL2 (545-775) (human, UniProt Q9Y4K0 545-774); assay: ELISA; plate coated with the catalytic domain of LOXL2, antibody titrated
T1 construct: No vector-derived tag is stated; also called recombinant catalytic domain of LOXL2; catalytic fragment
Procedure: (§1) A 96 well plate (Nunc) was coated with LOXL2 or BSA at 5 μg/ml. After the plate was coated, it was incubated with the antibody for 1 h at 25° C. The bound antibody was detected by peroxidase-conjugated antibody goat anti mouse according to standard procedures. The EC₅₀ was calculated from a four-parametric sigmoidal-curve fitting analysis.

[2] = target: T2, human LOXL2 (full length enzyme) (human, UniProt Q9Y4K0 26-774); assay: microscale thermophoresis in solution; x axis printed as [LOXL2], nM; LOXL2 construct not specified on the sheet or in the legend
T2 construct: also called lysyl-oxidase like protein-2
T2 sequence: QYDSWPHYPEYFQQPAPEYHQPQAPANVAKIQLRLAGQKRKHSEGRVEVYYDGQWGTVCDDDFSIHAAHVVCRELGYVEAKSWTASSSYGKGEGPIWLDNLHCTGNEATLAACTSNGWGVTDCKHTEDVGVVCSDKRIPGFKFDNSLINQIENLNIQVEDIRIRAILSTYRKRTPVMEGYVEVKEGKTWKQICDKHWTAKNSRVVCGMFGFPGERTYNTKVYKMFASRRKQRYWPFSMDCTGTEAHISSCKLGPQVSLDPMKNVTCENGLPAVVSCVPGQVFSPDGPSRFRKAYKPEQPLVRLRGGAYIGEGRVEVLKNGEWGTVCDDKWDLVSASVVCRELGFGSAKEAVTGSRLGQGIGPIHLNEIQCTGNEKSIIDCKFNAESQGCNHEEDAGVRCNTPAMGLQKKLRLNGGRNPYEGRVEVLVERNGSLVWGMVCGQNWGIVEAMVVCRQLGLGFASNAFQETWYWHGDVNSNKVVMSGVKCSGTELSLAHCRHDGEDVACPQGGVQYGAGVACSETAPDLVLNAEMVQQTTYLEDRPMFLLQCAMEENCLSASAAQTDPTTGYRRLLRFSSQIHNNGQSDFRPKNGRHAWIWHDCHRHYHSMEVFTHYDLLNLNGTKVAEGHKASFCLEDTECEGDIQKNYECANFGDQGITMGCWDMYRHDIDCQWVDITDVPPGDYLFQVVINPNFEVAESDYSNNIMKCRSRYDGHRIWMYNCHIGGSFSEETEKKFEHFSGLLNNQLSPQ

[3] = target: T1, catalytic domain of human LOXL2 …; assay: ELISA; plate coated with the catalytic domain of LOXL2, antibody titrated, detection with peroxidase-conjugated goat anti-mouse antibody
Procedure: as §1

- EC50 (read off the curve) [1]: ~0.4 nM
- Kd [2]: 6.97 nM
- EC50 [3]: 0.35 nM
B1: GS341 antibody (antibody, V domains shown)
VH: QVQLQQPGAELVRPGASVKLSCKASGYSFTNYWMSWVKQRPGQGLEWIGMIHPSDTDIRLHQKFKDKATLTVDKSSSTAYVQLSSPTSEDSAVYYCARGGQLGPWFAYWGQGTLVTVSA
VL: DIVMTQSPASLAVSLGQRATISCRASKSVSTSGYSYMHWYQQKPGQPPKLLIYLASNLESGVPARFSGSGSGTFTLNIHPVEEEDAATYYCQHSRELPWTFGGGTKLEIKR
notes: also called A341; ab341
